Measurements from patent US8603466 (KING S COLLEGE LONDON, dated 2013).

Tests used:
[1] = molecular target: human TSHR on stably transfected CHO cells (human, UniProt P16473 21-764); assay: cell-based or functional assay
[2] = molecular target: T1, human TSHR immobilised on coated tubes (TRAK II [DYNOtest human] kit) (human, UniProt P16473 21-764, limits assumed); assay: saturation binding of 125I-IgG on human TSHR coated tubes (TRAK II DYNOtest human); printed as Kd but expressed as reciprocal Kd (L/mol)
T1 construct: Receptor of a bought kit; also called human TSHR coated tubes; immobilized human TSHR
Description: Free isotope was removed by gel filtration in SEPHAROSE™ G25 columns and specific activity calculated (7). Antibody affinity was measured by saturation binding analysis. […] The affinity results were expressed as reciprocal Kd values (L/mol).
The labeled IgG and Fab fragments of the mabs were then used as tracers in competition studies to study the epitopes on the receptor. […] Serum from normal individuals, with no family history of autoimmunity were used as controls.

[3] = molecular target: T1, human TSHR immobilised on coated tubes …; assay: TBII assay, displacement of 125I-TSH from human TSHR coated tubes (TRAK II DYNOtest human)

Binder | EC50 of cAMP stimulation, NaCl-free sucrose HBSS [1] [ng/mL] | EC50 of cAMP stimulation, physiological NaCl HBSS [1] [ng/ml] | IgG concentration giving 3 fold cAMP stimulation [1] [ng/mL] | maximal stimulation of cAMP, fold over basal value [1] [fold over basal] | Ka [2] [M⁻¹] | IC50 [3] [ng/mL]
KSAb1 IgG (antibody, V domains shown, also called mAb9; IgG 9) VH: EVQLQQSGPELVKPGASMKISCKASGYSFSAYTMNWVKQSHGKNLEWIGLINPYNGGTNYNQEFEGKATLTVNKSSNTAFMELLSLTSDDSAVYYCARRDWDYFDYWGQGTTLTVSS VL: DIVMTQSQKFMSTSVGDRVSIICKASQNVGTFVAWYQQKPGQSPKLLVYSASNRYTGVPDRFTGSGSGTDFTLTINNMQSEDLADYFCRQYSSYPYTFGGGTKLEI | 9.4 | 16.5 | 1.2 | 199 | 4.5e+10 | 3.3
KSAb2 IgG (antibody, V domains shown, also called mAb17; IgG17) VH: EVQLQQSGPELVKPGASMKISCKASGYSFTAYTMNWVKQTHGKNLEWIGLINPYNGGTNYNQKFEDKATLTVDKSSNTAYMDLLSLTSEDSAVYYCARRDWDYFDYWGQGTTLTVSS VL: DVVMTQSQKFLSTSAGDRVSISCKASQNVGTALAWYQQKPGQSPKLLIYSASNRNTGVPDRFTGRGFGTDFTLTISNMQSEDLADYFCQQYSSYPYTFGGGTRLEI | 93 | 100 | 2.2 | 183 | 6.25e+10 | 10
